Test results published in FireProtDB.

B1: Superoxide dismutase [Mn], mitochondrial, P04179 (parent)
chain: MLSRAVCGTSRQLAPVLGYLGSRQKHSLPDLPYDYGALEPHINAQIMQLHHSKHHAAYVNNLNVTEEKYQEALAKGDVTAQIALQPALKFNGGGHINHSIFWTNLSPNGGGEPKGELLEAIKRDFGSFDKFKEKLTAASVGVQGSGWGWLGFNKERGHLQIAACPNQDPLQGTTGLIPLLGIDVWEHAYYLQYKNVRPDYLKAIWNVINWENVTERYMACKK
B2: Catalase-peroxidase 2, A4QUT2 (parent)
chain: MHASLSSWLLAASLLTQPISVSGQGCPFAKRDGTVDSSLPQKRADAPETTTFGRCAVKSNQAGGGTRSHDWWPCQLRLDVLRQFQPSQNPLGGDFDYAEAFQSLDYEAVKKDIAALMTESQDWWPADFGNYGGLFVRMAWHSAGTYRAMDGRGGGGMGQQRFAPLNSWPDNQNLDKARRLIWPIKQKYGNKISWADLMLLTGNVALENMGFKTLGFGGGRADTWQSDEAVYWGAETTFVPQGNDVRYNNSVDINARADKLEKPLAATHMGLIYVNPEGPNGTPDPAASAKDIREAFGRMGMNDTETVALIAGGHAFGKTHGAVKGSNIGPAPEAADLGMQGLGWHNSVGDGNGPNQMTSGLEVIWTKTPTKWSNGYLESLINNNWTLVESPAGAHQWEAVNGTVDYPDPFDKTKFRKATMLTSDLALINDPEYLKISQRWLEHPEELADAFAKAWFKLLHRDLGPTTRYLGPEVPKESFIWQDPLPAREGDLIDDADVDKLKAAILSTDGLDVSKLASTAMACATTYRNSDKRGGCNGARIALEPQRNWVSNNPTQLSAVLDALKKVQSDFNGSNGNKKVSLADLIVLGGTAAVEKAAKDAGVDIKVPFSAGRVDATQEQTDVTQFSYLEPQADGFRNYGRGTARARTEEIMVDKASQLTLTPPELTVLVGGMRALGANYDGSDVGVFTANKGKLTPDFFVNLVDMNIAWTASGADGESWVGTDRKSRSEKYKGSRADLVFGSHAELRAIAEVYAENGNQEKFVKDFVAAWTKVMNLDRFDLKVKK
B3: Citrate synthase, mitochondrial, P00889 (parent)
chain: MALLTAAARLFGAKNASCLVLAARHASASSTNLKDILADLIPKEQARIKTFRQQHGNTVVGQITVDMMYGGMRGMKGLVYETSVLDPDEGIRFRGYSIPECQKMLPKAKGGEEPLPEGLFWLLVTGQIPTEEQVSWLSKEWAKRAALPSHVVTMLDNFPTNLHPMSQLSAAITALNSESNFARAYAEGIHRTKYWELIYEDCMDLIAKLPCVAAKIYRNLYREGSSIGAIDSKLDWSHNFTNMLGYTDAQFTELMRLYLTIHSDHEGGNVSAHTSHLVGSALSDPYLSFAAAMNGLAGPLHGLANQEVLVWLTQLQKEVGKDVSDEKLRDYIWNTLNSGRVVPGYGHAVLRKTDPRYTCQREFALKHLPHDPMFKLVAQLYKIVPNVLLEQGKAKNPWPNVDAHSGVLLQYYGMTEMNYYTVLFGVSRALGVLAQLIWSRALGFPLERPKSMSTDGLIKLVDSK

Variants of: B1
Conditions: Homo sapiens; pH 7.8; 70 °C; Thermal; DSC; Potassium phosphate 2 mM; reversible: yes; structure 1N0J; whole UniProt chain shown

Row | Variant | ddG of mutation (higher = less stable) [kcal/mol]
1 | MLSRAVCGTSRQLAPVLGYLGSRQKHSLPDLPYDYGALEPHINAQIMQLHHSKHHAAYVNNLNVTEEKYQEALAKGDVTAQTALQPALKFNGGGHINHSIFWTNLSPNGGGEPKGELLEAIKRDFGSFDKFKEKLTAASVGVQGSGWGWLGFNKERGHLQIAACPNQDPLQGTTGLIPLLGIDVWEHAYYLQYKNVRPDYLKAIWNVINWENVTERYMACKK [I82T] | 2.7

Same assay, conditions: Homo sapiens; pH 7.8; Thermal; DSC; Potassium phosphate 2 mM; reversible: yes; structure 1N0J; whole UniProt chain shown

Row | Variant | Tm [°C] | change of melting temperature, mutant - wild type (higher = more stable) [°C] | unfolding enthalpy (calorimetric) [kcal/mol]
2 | MLSRAVCGTSRQLAPVLGYLGSRQKHSLPDLPYDYGALEPHINAQIMQLHHSKHHAAYVNNLNVTEEKYQEALAKGDVTAQTALQPALKFNGGGHINHSIFWTNLSPNGGGEPKGELLEAIKRDFGSFDKFKEKLTAASVGVQGSGWGWLGFNKERGHLQIAACPNQDPLQGTTGLIPLLGIDVWEHAYYLQYKNVRPDYLKAIWNVINWENVTERYMACKK [I82T] | 56.4 | -13.6 | 64.9

Variants of: B2
Conditions: Pyricularia oryzae (strain 70-15 / ATCC MYA-4617 / FGSC 8958); pH 7; Thermal; DSC; Phosphate buffer 5 mM; transition: 2; structure 5JHZ; whole UniProt chain shown

Row | Variant | Tm [°C]
3 | M299A | 48.2
4 | W140F | 44.8
5 | Y273F | 43.6

Variants of: B3
Conditions: Sus scrofa; pH 7.5; Thermal; CD; Tris-HCl 5.0 mM; reversible: yes; structure 1CTS; whole UniProt chain shown

Row | Variant | Tm [°C] | change of melting temperature, mutant - wild type (higher = more stable) [°C]
6 | MALLTAAARLFGAKNASCLVLAARHASASSTNLKDILADLIPKEQARIKTFRQQHGNTVVGQITVDMMYGGMRGMKGLVYETSVLDPDEGIRFRGYSIPECQKMLPKAKGGEEPLPEGLFWLLVTGQIPTEEQVSWLSKEWAKRAALPSHVVTMLDNFPTNLHPMSQLSAAITALNSESNFARAYAEGIHRTKYWELIYEDCMDLIAKLPCVAAKIYRNLYREGSSIGAIDSKLDWSHNFTNMLGYTDAQFTELMRLYLTIHSDHEGGNVSAHTSHLVGSALSDPYLSFAAAMNGLAGPLGGLANQEVLVWLTQLQKEVGKDVSDEKLRDYIWNTLNSGRVVPGYGHAVLRKTDPRYTCQREFALKHLPHDPMFKLVAQLYKIVPNVLLEQGKAKNPWPNVDAHSGVLLQYYGMTEMNYYTVLFGVSRALGVLAQLIWSRALGFPLERPKSMSTDGLIKLVDSK [H301G] | 56 | -1.9
7 | MALLTAAARLFGAKNASCLVLAARHASASSTNLKDILADLIPKEQARIKTFRQQHGNTVVGQITVDMMYGGMRGMKGLVYETSVLDPDEGIRFRGYSIPECQKMLPKAKGGEEPLPEGLFWLLVTGQIPTEEQVSWLSKEWAKRAALPSHVVTMLDNFPTNLHPMSQLSAAITALNSESNFARAYAEGIHRTKYWELIYEDCMDLIAKLPCVAAKIYRNLYREGSSIGAIDSKLDWSHNFTNMLGYTDAQFTELMRLYLTIHSDHEGGNVSAHTSHLVGSALSDPYLSFAAAMNGLAGPLRGLANQEVLVWLTQLQKEVGKDVSDEKLRDYIWNTLNSGRVVPGYGHAVLRKTDPRYTCQREFALKHLPHDPMFKLVAQLYKIVPNVLLEQGKAKNPWPNVDAHSGVLLQYYGMTEMNYYTVLFGVSRALGVLAQLIWSRALGFPLERPKSMSTDGLIKLVDSK [H301R] | 56.8 | -1.1
8 | MALLTAAARLFGAKNASCLVLAARHASASSTNLKDILADLIPKEQARIKTFRQQHGNTVVGQITVDMMYGGMRGMKGLVYETSVLDPDEGIRFRGYSIPECQKMLPKAKGGEEPLPEGLFWLLVTGQIPTEEQVSWLSKEWAKRAALPSHVVTMLDNFPTNLHPMSQLSAAITALNSESNFARAYAEGIHRTKYWELIYEDCMDLIAKLPCVAAKIYRNLYREGSSIGAIDSKLDWSHNFTNMLGYTDAQFTELMRLYLTIHSDHEGGNVSAHTSHLVGSALSDPYLSFAAAMNGLAGPLHGLANQEVLVWLTQLQKEVGKDVSDEKLRDYIWNTLNSGRVVPGYGHAVLRKTDPRYTCQREFALKHLPHDPMFKLVAQLYKIVPNVLLEQGKAKNPWPNVGAHSGVLLQYYGMTEMNYYTVLFGVSRALGVLAQLIWSRALGFPLERPKSMSTDGLIKLVDSK [D402G] | 62.5 | 4.6
9 | MALLTAAARLFGAKNASCLVLAARHASASSTNLKDILADLIPKEQARIKTFRQQHGNTVVGQITVDMMYGGMRGMKGLVYETSVLDPDEGIRFRGYSIPECQKMLPKAKGGEEPLPEGLFWLLVTGQIPTEEQVSWLSKEWAKRAALPSHVVTMLDNFPTNLHPMSQLSAAITALNSESNFARAYAEGIHRTKYWELIYEDCMDLIAKLPCVAAKIYRNLYREGSSIGAIDSKLDWSHNFTNMLGYTDAQFTELMRLYLTIHSDHEGGNVSAHTSHLVGSALSDPYLSFAAAMNGLAGPLHGLANQEVLVWLTQLQKEVGKDVSDEKLRDYIWNTLNSGRVVPGYGHAVLRKTDPRYTCQREFALKHLPHDPMFKLVAQLYKIVPNVLLEQGKAKNPWPNVQAHSGVLLQYYGMTEMNYYTVLFGVSRALGVLAQLIWSRALGFPLERPKSMSTDGLIKLVDSK [D402Q] | 69 | 11.1
